Consider 66 substances from the array DNA melting data of Ke et al..

The data set in a line: melting temperature; melt of duplexes. The settings on record: sodium 0.0675 M; strand 1 µM.
One may read the Tm as the temperature at the midpoint of the melting transition. Consider “CGACGTGCACAATGTGCTG+CAGCACATATCGCACGTCG ((((((((...((((((((+))))))))...))))))))”, for which the Tm came to 44.6 °C.
In the case of “CGACGTGCCAAATGTGCTG+CAGCACATATGGCACGTCG ((((((((((.((((((((+)))))))).))))))))))”, the Tm is 56.9 °C.
“CGACGTGCGCCATGTGCTG+CAGCACATTTAGCACGTCG ((((((((...((((((((+))))))))...))))))))”: the Tm turned out to be 50.1 °C.
Turning to “CGACGTGCTTGATGTGCTG+CAGCACATTCCGCACGTCG ((((((((...((((((((+))))))))...))))))))”, the midpoint of thermal melting (Tm) amounted to 48.5 °C.
With “CGACGTGCTACATGTGCTG+CAGCACATGCCGCACGTCG ((((((((..(((((((((+)))))))))..))))))))”, the Tm came to 52.3 °C.
Take “CGACGTGCCTAATGTGCTG+CAGCACATTCGGCACGTCG (((((((((.(((((((((+))))))))).)))))))))”: the Tm is 57 °C.
Consider “CGACGTGCCATATGTGCTG+CAGCACATAAAGCACGTCG ((((((((..(((((((((+)))))))))..))))))))”, for which the Tm was 51.3 °C.
Consider “CGACGTGCAAGATGTGCTG+CAGCACATCTTGCACGTCG (((((((((((((((((((+)))))))))))))))))))”, for which the midpoint of thermal melting (Tm) amounted to 63.8 °C.
For “CGACGTGCACCATGTGCTG+CAGCACATTGCGCACGTCG ((((((((.(.((((((((+)))))))).).))))))))”, the Tm amounted to 46.9 °C.
On to “CGACGTGCTAGATGTGCTG+CAGCACATATCGCACGTCG ((((((((.(.((((((((+)))))))).).))))))))”, for which the Tm was 51 °C.
Take “CGACGTGCTTAATGTGCTG+CAGCACATAGGGCACGTCG ((((((((...((((((((+))))))))...))))))))”: the Tm stood at 50 °C.
To “CGACGTGCCCCATGTGCTG+CAGCACATACTGCACGTCG ((((((((...((((((((+))))))))...))))))))” belongs 45.9 °C; to “CGACGTGCTAGATGTGCTG+CAGCACATTAGGCACGTCG ((((((((...((((((((+))))))))...))))))))”, 52.2 °C; to “CGACGTGCCGAATGTGCTG+CAGCACATCAAGCACGTCG ((((((((...((((((((+))))))))...))))))))”, 49.6 °C.
Take “CGACGTGCTGAATGTGCTG+CAGCACATGCGGCACGTCG ((((((((.(.((((((((+)))))))).).))))))))”: the Tm worked out at 55.3 °C.
Turning to “CGACGTGCTACATGTGCTG+CAGCACATCCGGCACGTCG ((((((((...((((((((+))))))))...))))))))”, the Tm was determined as 48.7 °C.
With “CGACGTGCTAAATGTGCTG+CAGCACATAATGCACGTCG ((((((((...((((((((+))))))))...))))))))”, the Tm came out at 50.7 °C.
The value for “CGACGTGCCATATGTGCTG+CAGCACATGGAGCACGTCG ((((((((...((((((((+))))))))...))))))))” was 51.5 °C; that for “CGACGTGCTTTATGTGCTG+CAGCACATGCAGCACGTCG (((((((((..((((((((+))))))))..)))))))))” was 50.9 °C; that for “CGACGTGCGGGATGTGCTG+CAGCACATGAAGCACGTCG ((((((((...((((((((+))))))))...))))))))” was 53.7 °C.
Regarding “CGACGTGCCTTATGTGCTG+CAGCACATTCGGCACGTCG (((((((((..((((((((+))))))))..)))))))))”, the Tm turned out to be 53 °C.
Turning to “CGACGTGCCGCATGTGCTG+CAGCACATGTCGCACGTCG ((((((((..(((((((((+)))))))))..))))))))”, the Tm came out at 54.3 °C.
The value for “CGACGTGCACCATGTGCTG+CAGCACATACGGCACGTCG ((((((((...((((((((+))))))))...))))))))” was 42.9 °C.
With “CGACGTGCAAGATGTGCTG+CAGCACATATGGCACGTCG ((((((((.(.((((((((+)))))))).).))))))))”, the Tm is 53 °C.
In the case of “CGACGTGCTAAATGTGCTG+CAGCACATCGCGCACGTCG ((((((((...((((((((+))))))))...))))))))”, the Tm came to 47.5 °C.
Consider “CGACGTGCCCGATGTGCTG+CAGCACATGTCGCACGTCG ((((((((...((((((((+))))))))...))))))))”, for which the Tm amounted to 48.4 °C.
The value for “CGACGTGCCGTATGTGCTG+CAGCACATGTCGCACGTCG ((((((((...((((((((+))))))))...))))))))” was 49 °C.
For “CGACGTGCCGGATGTGCTG+CAGCACATCCAGCACGTCG ((((((((.((((((((((+)))))))))).))))))))”, the Tm came out at 59 °C.
As for “CGACGTGCGAGATGTGCTG+CAGCACATTACGCACGTCG (((((((((..((((((((+))))))))..)))))))))”, the Tm is 55.4 °C.
As to “CGACGTGCACGATGTGCTG+CAGCACATCGTGCACGTCG (((((((((((((((((((+)))))))))))))))))))”, the melting temperature (Tm) was determined as 65.4 °C.
Take “CGACGTGCGTCATGTGCTG+CAGCACATTTTGCACGTCG ((((((((...((((((((+))))))))...))))))))”: the Tm was determined as 48.4 °C.
The value for “CGACGTGCGAAATGTGCTG+CAGCACATGAGGCACGTCG ((((((((...((((((((+))))))))...))))))))” was 54.5 °C; that for “CGACGTGCAAGATGTGCTG+CAGCACATCGGGCACGTCG ((((((((..(((((((((+)))))))))..))))))))” was 57 °C.
For the substance “CGACGTGCAGCATGTGCTG+CAGCACATTCTGCACGTCG ((((((((((.((((((((+)))))))).))))))))))”, the Tm was determined as 55 °C.
For “CGACGTGCCTGATGTGCTG+CAGCACATCGGGCACGTCG (((((((((.(((((((((+))))))))).)))))))))”, the Tm stood at 61.7 °C.
As to “CGACGTGCTGGATGTGCTG+CAGCACATCCGGCACGTCG ((((((((.((((((((((+)))))))))).))))))))”, the Tm was determined as 62.9 °C.
As for “CGACGTGCAAAATGTGCTG+CAGCACATGTAGCACGTCG ((((((((.(.((((((((+)))))))).).))))))))”, the melting temperature (Tm) came out at 53.1 °C.
With “CGACGTGCCACATGTGCTG+CAGCACATAGAGCACGTCG ((((((((...((((((((+))))))))...))))))))”, the Tm was found to be 49.4 °C.
In the case of “CGACGTGCTGTATGTGCTG+CAGCACATACCGCACGTCG ((((((((.((((((((((+)))))))))).))))))))”, the midpoint of thermal melting (Tm) was 55.2 °C.
With “CGACGTGCCTCATGTGCTG+CAGCACATCTGGCACGTCG (((((((((..((((((((+))))))))..)))))))))”, the Tm amounted to 52.7 °C.
Regarding “CGACGTGCAACATGTGCTG+CAGCACATTACGCACGTCG ((((((((...((((((((+))))))))...))))))))”, the Tm is 47.9 °C.
In the case of “CGACGTGCGGAATGTGCTG+CAGCACATGCGGCACGTCG ((((((((.(.((((((((+)))))))).).))))))))”, the midpoint of thermal melting (Tm) came out at 54.3 °C.
“CGACGTGCGATATGTGCTG+CAGCACATCCGGCACGTCG ((((((((...((((((((+))))))))...))))))))”: the Tm is 49.3 °C.
Regarding “CGACGTGCTAGATGTGCTG+CAGCACATTGTGCACGTCG ((((((((...((((((((+))))))))...))))))))”, the Tm was determined as 48.5 °C.
As to “CGACGTGCCTCATGTGCTG+CAGCACATGCCGCACGTCG ((((((((..(((((((((+)))))))))..))))))))”, the Tm worked out at 51.4 °C.
Take “CGACGTGCTAAATGTGCTG+CAGCACATAGTGCACGTCG ((((((((...((((((((+))))))))...))))))))”: the Tm was 45.2 °C.
“CGACGTGCGCGATGTGCTG+CAGCACATTAAGCACGTCG ((((((((...((((((((+))))))))...))))))))”: the Tm came out at 55 °C.
Turning to “CGACGTGCCAAATGTGCTG+CAGCACATACCGCACGTCG ((((((((...((((((((+))))))))...))))))))”, the Tm is 47.3 °C.
The value for “CGACGTGCCTAATGTGCTG+CAGCACATCTAGCACGTCG ((((((((...((((((((+))))))))...))))))))” was 48.8 °C.
On to “CGACGTGCGCCATGTGCTG+CAGCACATTATGCACGTCG ((((((((...((((((((+))))))))...))))))))”, for which the Tm is 47.6 °C.
In the case of “CGACGTGCTGTATGTGCTG+CAGCACATTGCGCACGTCG ((((((((...((((((((+))))))))...))))))))”, the Tm was 47.9 °C.
To “CGACGTGCATAATGTGCTG+CAGCACATTCAGCACGTCG ((((((((..(((((((((+)))))))))..))))))))” belongs 52 °C; to “CGACGTGCATAATGTGCTG+CAGCACATCATGCACGTCG ((((((((((.((((((((+)))))))).))))))))))”, 54 °C; to “CGACGTGCGCTATGTGCTG+CAGCACATGGCGCACGTCG ((((((((((.((((((((+)))))))).))))))))))”, 63.2 °C.
Turning to “CGACGTGCAATATGTGCTG+CAGCACATCTAGCACGTCG ((((((((.(.((((((((+)))))))).).))))))))”, the midpoint of thermal melting (Tm) amounted to 49.2 °C.
As to “CGACGTGCCCGATGTGCTG+CAGCACATTACGCACGTCG ((((((((...((((((((+))))))))...))))))))”, the Tm was 48 °C.
With “CGACGTGCTTTATGTGCTG+CAGCACATGATGCACGTCG ((((((((.(.((((((((+)))))))).).))))))))”, the Tm worked out at 52.1 °C.
The value for “CGACGTGCTGAATGTGCTG+CAGCACATGTCGCACGTCG ((((((((...((((((((+))))))))...))))))))” was 52.1 °C; that for “CGACGTGCAGTATGTGCTG+CAGCACATAAGGCACGTCG ((((((((..(((((((((+)))))))))..))))))))” was 52.1 °C.
For “CGACGTGCTTCATGTGCTG+CAGCACATGTAGCACGTCG (((((((((.(((((((((+))))))))).)))))))))”, the Tm is 57 °C.
For the substance “CGACGTGCCAAATGTGCTG+CAGCACATGACGCACGTCG ((((((((...((((((((+))))))))...))))))))”, the Tm was 47.5 °C.
As to “CGACGTGCTGCATGTGCTG+CAGCACATTGAGCACGTCG (((((((((..((((((((+))))))))..)))))))))”, the Tm is 52.2 °C.
On to “CGACGTGCAGCATGTGCTG+CAGCACATAGGGCACGTCG ((((((((...((((((((+))))))))...))))))))”, for which the Tm stood at 46.4 °C.
As to “CGACGTGCGTAATGTGCTG+CAGCACATGGAGCACGTCG ((((((((...((((((((+))))))))...))))))))”, the melting temperature (Tm) turned out to be 60.7 °C.
For the substance “CGACGTGCCCCATGTGCTG+CAGCACATGTTGCACGTCG ((((((((..(((((((((+)))))))))..))))))))”, the Tm stood at 51.8 °C.
Consider “CGACGTGCGATATGTGCTG+CAGCACATCTGGCACGTCG ((((((((.(.((((((((+)))))))).).))))))))”, for which the Tm was found to be 50 °C.
